The record followed here is patent US10844127 (MERUS N V, dated 2020).

Numbering of substitutions follows the chain as printed. Where two headings read alike, the source gives them in different places.

Assay [1] concerns the target T1, human EGFR, full length (human, UniProt P00533 25-1210). In words: cell-based or functional assay.
Assay [2] has as its target T2, human EGFR ECD-Fc fusion protein (R&D Systems) (human, UniProt P00533 25-645).
T2 construct: extracellular domain; also called rhEGFR-Fc; EGFR-Fc; not shown: Fc part of the bought fusion protein, not described
In words: phage ELISA, Fab on phage, immobilized EGFR, no IgG. A general note: ELISA stands for enzyme-linked immunosorbent assay.

Assay [3] has as its target T3, chimeric cynomolgus-human EGFR (cynomolgus ECD, human trans-membrane …, UniProt P55245 25-1210 (rhesus entry)).
T3 construct: also called cynomolgus EGFR; chimeric cyno-human receptor
In words: FACS, CHO cells transfected with chimeric cynomolgus/human EGFR, IgG at 5 µg/ml. For orientation: In flow cytometry, cells or beads pass a laser one at a time.

Assay [4] deals with T2, human EGFR ECD-Fc fusion protein (R&D …). In words: phage ELISA, Fab on phage, immobilized EGFR, with competitor ICR10 (Domain I).
For assay [5] the target is unchanged. Nature of the assay: phage ELISA, Fab on phage, immobilized EGFR, with competitor EGFR.1 (Domain II).
Assay [6] shares this target. Nature of the assay: phage ELISA, Fab on phage, immobilized EGFR, with competitor Cetuximab (Domain III).
Assay [7] shares this target. Nature of the assay: phage ELISA, Fab on phage, immobilized EGFR, with competitor MatuzuMab (Domain III).
Assay [8] concerns the target T1, human EGFR, full length. In words: FACS on CHO cells stably expressing wtEGFR (CHO-wtEGFR).
For assay [9], the target named is T4, CHO-vIII (human, UniProt P00533).
T4 construct: expressed on CHO cells; also called EGFR variant III
Nature of the assay: FACS on CHO cells expressing EGFR variant III (CHO-vIII).

The target in assay [10] is T3, chimeric cynomolgus-human EGFR. In words: FACS, CHO cells transfected with chimeric cynomolgus/human EGFR, IgG at 5 µg/ml. The source holds these as a separate data set.
Assay [11] concerns the target T5, CHO-delta II.
T5 construct: also called EGFR HER3 swap varII ECD; domain II swap mutant
In words: FACS on CHO cells expressing the domain II swap mutant (CHO-delta II).

The target of assay [12] is T6, CHO-delta IV.
T6 construct: also called EGFR HER3 swap varIV ECD; domain IV swap mutant
In words: FACS on CHO cells expressing the domain IV swap mutant (CHO-delta IV).

Assay [13] concerns the target T7, CHO-delta III.
T7 construct: also called EGFR HER3 swap varIII ECD; domain III swap mutant
T7 chain: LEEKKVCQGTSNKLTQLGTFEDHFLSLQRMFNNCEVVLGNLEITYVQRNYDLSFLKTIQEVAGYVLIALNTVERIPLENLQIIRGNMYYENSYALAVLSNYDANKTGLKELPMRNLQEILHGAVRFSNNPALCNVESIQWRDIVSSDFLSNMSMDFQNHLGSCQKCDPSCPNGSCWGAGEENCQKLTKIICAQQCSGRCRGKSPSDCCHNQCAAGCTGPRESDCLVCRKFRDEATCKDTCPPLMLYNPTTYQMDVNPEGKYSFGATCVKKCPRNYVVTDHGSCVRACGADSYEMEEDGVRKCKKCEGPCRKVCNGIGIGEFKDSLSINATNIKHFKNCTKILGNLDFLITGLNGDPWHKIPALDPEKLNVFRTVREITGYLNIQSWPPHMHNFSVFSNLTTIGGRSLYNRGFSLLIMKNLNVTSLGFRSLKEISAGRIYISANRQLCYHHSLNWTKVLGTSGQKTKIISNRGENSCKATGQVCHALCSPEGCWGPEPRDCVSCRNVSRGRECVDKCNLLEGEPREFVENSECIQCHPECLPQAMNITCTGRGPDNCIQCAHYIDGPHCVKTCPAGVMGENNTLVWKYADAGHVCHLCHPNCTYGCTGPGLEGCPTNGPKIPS
In words: FACS on CHO cells expressing the domain III swap mutant (CHO-delta III).

The target in assay [14] is T8, mouse EGFR ECD fused to human IgG1 Fc (Sino Biologicals cat. nr. 51091-M02H) (mouse; human, UniProt Q01279 25-647).
T8 construct: extracellular domain; also called murine EGFR; not shown: human IgG1 Fc
In words: ELISA on coated mouse EGFR ECD-human IgG1 Fc.

B1: PG4289 (antibody, IgG1, V domains shown)
VH: QVQLVQSGSELKKPGASVKVSCKTSGYTFTDYAMTWVRQAPGQGLEWMGWITTNTGDPTYAPGFTGRFVFSLDTSVSTAYLQISSLKAEDTAVYYCARVYHWIRGFEFWGQGTLVTVSS
VL: not shown
notes: Mono-specific bivalent full length IgG1 with the common light chain; also called MF4289; MG4289
For B1, in assay [1], the “EGFR blocking activity compared to cetuximab (inhibition of EGF-induced cell death of A431 cells)” value amounted to 80%. Besides, the OD in [2] turned out to be 2.28; in assay [4], 2.05; in [5] it was 2.23; in assay [6] it was 2.22; in [7], 2.36. Besides, in assay [3], the binding result is “binds”.

B2: PG4003 (antibody, IgG1, V domains shown)
VH: QVQLVQSGSELKKPGASVKVSCKASGYTFPSFAMNWLRQAPGQGLEWMGWITTNTGDPTYAQGFSGRFVFSLDTSVSTAYLQISSLKAEDTAVYYCARVYNWIRGFDYWGQGTLVTVSS
VL: not shown
notes: Mono-specific bivalent full length IgG1 with the common light chain; also called MF4003; MG4003
Take B2: the binding result in [8] is recorded as “binds”; in assay [9] it was “no binding”; in [10], “binds”; in assay [11], “binds”; in [12] it was “binds”; in assay [13], “binds”.

B3: PG3998 (antibody, IgG1, V domains shown)
VH: QVQLVQSGSELKKPGASVKVSCKASGYTFTNNAINWVRQAPGQGLEWMGWINTITGDPTYAQGFTGRFVFSLDTSVSTAYLQISSLKAEDTGVYYCAREEFLEWLFFDYWGQGTLVTVSS
VL: not shown
notes: Mono-specific bivalent full length IgG1 with the common light chain, from 293F cells; also called MF3998; MG3998
Take B3: the “EGFR blocking activity compared to cetuximab (inhibition of EGF-induced cell death of A431 cells)” value in assay [1] was over 100%. The OD in assay [2] was found to be 2.49; in assay [4], 2.23; in [5], 2.34; in [6], 0.101; in assay [7] it was 0.671. For the same molecule, the binding result in assay [3] is reported as “binds”.

B4: PG4010 (antibody, IgG1, V domains shown)
VH: B3 VH with I34M, T59S, S77N, G92A
VL: not shown
notes: Mono-specific bivalent full length IgG1 with the common light chain; also called MF4010; MG4010
B4: the binding result in assay [8] is “binds”; in [10], “binds”; in assay [11], “binds”; in [12], “binds”; in assay [13], “no binding”.

B5: PG4280 (antibody, IgG1, V domains shown)
VH: QVQLVQSGAEVKKPGASVKVSCKVSGYTLTELSMHWVRQAPGKGLEWMGGFDPEYGKTFFAQNFQGRVTMTEDTSADTAYMELSSLRSEDTAVYYCATEGYYETTTYYYNLFDSWGQGTLVTVSS
VL: not shown
notes: Mono-specific bivalent full length IgG1 with the common light chain; also called MF4280; MG4280
Consider B5, for which the “EGFR blocking activity compared to cetuximab (inhibition of EGF-induced cell death of A431 cells)” value in assay [1] was determined as 100%. The values for the binding result in assay [14] and in assay [3] were “no binding (tested: 5 µg/ml)” and “binds”, respectively. Also, the OD worked out at 2.55 in assay [2]; 2.3 in assay [4]; 2.13 in [5]; 1.14 in assay [6]; 0.613 in assay [7].
